Data set [1] deals with T1, Thrombin (Homo sapiens, UniProt P00734;P00734 P00734:328-363,P00734:364-622). In words: FP; 20 mM Tris, 140 mM NaCl, 20 mM KCl, 1 mM CaCl2, 1 mM MgCl2, 0.1% Triton X, room temperature.
Data set [2] concerns the target T1, Thrombin. Briefly: FP; no binding observed with up to 2 uM thrombin.

B1: TBA1F (ssDNA)
DNA: CGTCGAGGCCCCTTCTTCTTCGTCTTCTTCTTAGGAGGTGGTGTGGTTGGTTTTACACGTCACGCCTTTTTTTTT
modifications: branched DNA-encoded construct: code strand with branching unit BU; aptamer branch …
The term Kd denotes the concentration at which binding is half-saturated. In data set [1], B1 showed a Kd of 13 nM.

As for GGTTGGTGTGGTTGG (ssDNA) [PC (positive control TBA 15mer)], the affinity in data set [1], expressed as Kd, was 10 nM.

In the case of GGTTGGTGTTGTTTG (ssDNA) [NCS], the binding result in data set [2] is on record as “no binding”.

B2: NCL (ssDNA)
DNA: CGTCGAGGCCCCTTCTTCTTCGTCTTCTTCTTAGGATACACGTCACGCCTTTTTTTTT
For the molecule B2, in data set [2], the binding result is “no binding”.

(Values after US20230220381 (published 2023).)
